Results taken from patent US10010616B2, “Immunogenic compositions and reagents for preparing” (PURDUE RESEARCH FOUNDATION, priority 2011, dated 2018).

Tests used:
[1] = reported, Hem et al., Vaccine 1995; cited from earlier work
[2] = Adsorption isotherm on aluminum hydroxide adjuvant; assay type: binding; details: Rehydragel HPA aluminum hydroxide 20-26 μg/mL, 4° C., micro BCA assay
Procedure: The phosphorus containing groups described herein bind adjuvants. Compounds containing a phosphorus containing group and a UV chromophore are prepared and quantitative binding data are obtained as adsorption isotherms. Briefly, Rehydragel HPA aluminum hydroxide was suspended (113 μg/mL) in buffer, and varying concentrations of each of compounds E, F, G, and H are added. The suspensions are allowed to equilibrate, and the concentration of each compound in solution at equilibrium is measured. The amount of compound adsorbed (weight/weight) is plotted against the concentration in solution to generate the adsorption isotherm. Adsorption capacity and adsorptive coefficient are calculated for each compound by double reciprocal analysis; the results are summarized in the following table.
Compound B is coupled to egg white lysozyme. […] After centrifugation, the protein concentration in the supernatant is measured by a standard micro bicinchoninic acid protein assay procedure. […]
Adsorption of Compound H (Egg white Lysozyme/Compound B conjugate) by Aluminum Hydroxide. […] The supernatant was analyzed in triplicate for compound H concentration by the micro bicinchoninic acid (BCA) assay. The amount of compound H adsorbed was determined by subtracting the amount remaining in the supernatant from the amount initially present. […]

Mice = experiment: Anti-lysozyme antibody response in mice, conjugated vs unconjugated lysozyme; assay type: in vivo; details: 10 μg dose, FIG. 2
Procedure: Compound B-Lysozyme-P2 is prepared in a similar manner using a greater excess of conjugating agent compound B. To determine the magnitude of immunogenic enhancement for the linker-modified protein, a dose response is evaluated comparing a range of doses of compound B-Lysozyme-P2 and AH, to a range of doses of unmodified hen egg lysozyme and AH, according to the following table:
Mice are injected on day 0 and day 21. Blood is collected on day 21 and on day 35. Serum anti-lysozyme IgG and anti-lysozyme IgG subclasses are measured by ELISA assay.
Dose response comparison of conjugated and unconjugated lysozyme immunological response. […] preparations are investigated: (A), lysozyme alone (10 μg dose); (B), lysozyme (10 μg dose)+AH; (C), lysozyme-P2 (2 conjugate load, 10 μg dose)+AH; (D) lysozyme (1 μg dose)+AH; (E), lysozyme-P2 (1 μg dose)+AH.

Substance: lysozyme: egg white lysozyme (16 kDa MW), unmodified
- Complexation by aluminum hydroxide (in words) [1]: negligibly complexed
- Affinity for aluminum hydroxide (in words) [2]: poor electrostatic binding with aluminum hydroxide
- anti-lysozyme antibody production (Mice): does not show a significant induction of antibody response
